Assay results reported in the DeepSol protein solubility set.

Test: soluble on expression in E. coli; label from the status in PepcDB or PDB records

Sequence | soluble on expression in E. coli
MKLEGVWKVFGNVVAVRDVNLYIEDKEFVSILGPSGSGKTTLLYLIAGIYKPSRGRIYFNDVDVTDLPPNKRNIGLVFQNYALYPHMTVYENIAFPLRLRNFGEPAIKEKVLSVAKLLGIEGLLDRYPAQLSGGQQQRVALARALVKEPEVLLLDEPLSNLDALLRIKIRSELKKLQKELGITAIYVTHDQSEALAMADRIAIIASGVIQQVGKPWDVYYKPRNVFVASFIGTPPANLVSVPLDSSRRCLLLPGGGRYCPPRRIAEKLAAVKTNSVILGFRPEVAVLSESPLGDYVSMEAEVYTVETLGRENIVTLLVNGSQVKVIVPPVVEPRPGSRIFINIEEDKVMYFDPETEINVEYLEVPGMEEAIAESAGTLRKQEMEEEWD | soluble
MKLESLVEEARQCQDRTVAVAAAEDEEVIEAVAMALEHRLGRFVLYGDRERLGRLLKEKGCARFSDVDVVHANSIGQAAELAVRAVHLNEADALMKGHVPTATLLKAVLNKEYGLRTGKVLSHVAVFEVPEFDRFVIVTDAAMNIAPDLEQKAQIVNNAVSIARSIGIERPKVAALAAVETVNPAMPATVDAAALAMMQKRGQIEHCLLDGPLALDNAVSLAAAKHKRIESEVAGQADILLVPDIESGNMLYKSLVYFANARVGAVIAGAKAPIVLTSRADSAESKLYSLALAICSAAK | not soluble
MKLIAESGSTRTEWALVEDNHLVQRVFTEGLNPFFQTRREISRSVRLGLPESFFKKKLDQVYYYGAGCSSYEKKNILGASLVAQFKTPIQVESDLLAAARGLFKCEAGIACILGTGSNSCFYDGKIIVKNVKAAGYILGDEGSGAVLGKLFLADLLKGLAPKELANEFHEKFRISVNDVMESVYNLPFPNRFLGTIAYFLGDYMDNEYVYNLLTNNLRSFFNRNVCQYDYINYPIRFVGSLAYAYPDILQEVAQEFGVEIDVIEETPMNGLIEFHSMNIEESMAGDPLEHHHHHH | not soluble
MKLITAIVQDKDASSVANALVEHNIRATRLASAGGFLRSGNSTFLIAVKDDEVNTTIGVIKEHSKTRKQFVTPPVGLDMSIDTIGQPIEVEIGGATIIVQAIEDFQHF | not soluble
MKLKAMYSFLSDDLAAVEEELERTVRSEYGPLGEAALHLLQAGGKRIRPVFVLLSARFGHYDFERIKHVAVALELIHMASLVHDDVIDDADVRRGRPTIKARWSNRFAMYTGDYLFARSLERMAELDSPRAHQVLAKTIVEVCHGEIEQIKDKYRFDQPLRTYLRRIRRKTALLIAASCQLGALAAGAPEAVANRLYWFGHCVGMSFQITDDILDFTGTEEQLGKPAGSDLQQGNVTLPVLYALCDEQVRAKITAVNADTDAEEMAAVLAAIKQTDAIERSYALSDRYLEKALRLLGELPANEARTLLHDLALYIGKRDY | not soluble
MKLKTTLFGNVYQFKDVKEVLAKANELRSGDVLAGVAAASSQERVAAKQVLSEMTVADIRNNPVIAYEDDCVTRLIQDDVNETAYNQIKNWSISELREYVLSDETSVDDIAFTRKGLTSEVVAAVAKICSNADLIYGAKKMPVIKKANTTIGIPGTFSARLQPNDTRDDVQSIAAQIYEGLSFGVGDAVIGVNPVTDDVENLSRVLDTIYGVIDKFNIPTQGCVLAHVTTQIEAIRRGAPGGLIFQSICGSEKGLKEFGVELAMLDEARAVGAEFNRIAGENCLYFETGQGSALSAGANFGADQVTMEARNYGLARHYDPFIVNTVVGFIGPEYLYNDRQIIRAGLEDHFMGKLSGISMGCDCCYTNHADADQNLNENLMILLATAGCNYIMGMPLGDDIMLNYQTTAFHDTATVRQLLNLRPSPEFERWLESMGIMANGRLTKRAGDPSLFF | soluble
MKLMKKNTDDGAKIYTPLTLKLYDWWVLGVSNRLAWGCPTKEHLLPHFLEHLGNNHLDIGVGTGFYLTHVPESSLISLMDLNEASLNAASTRAGESKIKHKISHDVFDPYPAALHGQFDSISMFYLLHCLPGNISTKSCVIRNAAQALTDDGTLYGATILGDGVVHNSFGQKLMRIYNQKGIFSNTKDSEEGLTHILSEHFENVKTKVKGTVVMFSASGKK | not soluble
MKLRSVTYALFIAGLAAFSTSSLAAQSLRFGYETSQTDSQHIAAKKFNDLLQERTKGELKLKLFPDSTLGNAQAMISGVRGGTIDMEMSGSNNFAGLSPVMNLLDVPFLFRDTAHAHKTLDGKVGDDLKASLEGKGLKVLAYWENGWRDVTNSRAPVKTPADLKGLKIRTNNSPMNIAAFKVFGANPIPMPFAEVYTGLETRTIDAQEHPINVVWSAKFFEVQKFLSLTHHAYSPLLVVINKAKFDGLSPEFQQALVSSAQEAGNYQRKLVAEDQQKIIDGMKEAGVEVITDLDRKAFSDALGNQVRDMFVKDVPQGADLLKAVDEVQ | not soluble
MKLTDRWFTSISEDEKGNIVFVNGRLELDEFRLSGKLKIRIEIRWPYEADEQGLPTESAGKRIEEIELLIRKAMEKDKLAIMTGNYTGGGTKYWVYYARTERVFGERLNEVLAPYETLPLEIECEVDTDWEEYLDMLSMKDENSI | not soluble
MKMYADERREHIYSYIKSHKRATVKQLSDYLSVTEATVRSDLRRLESENKLTRTHGGAKVTENIGSKFNFSYRLTQKHGEKYKISKSALKKIKPQQCIMIDASSTTYELAKLLAETTMELTIITNGLENAVLLKENPHLTVLVVGGFVSQDSNAITGNIDSQILEMYHIDYFFLSANGFTLENGLTDFSLPEVQLKKQMVQESENVIALIDKSKFGVSSTLSFAKISDINEVITDEKPEHKWLKHVPFSVTVAQLEHHHHHH | soluble
MKNASVITVGNEILKGRTVNTNAAFIGNFLTYHGYQVRRGFVVMDDLDEIGWAFRVALEVSDLVVSSGGLGPTFDDMTVEGFAKCIGQDLRIDEDALAMIKKKYGQADLTPQRLKMAKIPPSCRPIENPVGTAPGLICAVGGKKVIILPGVPKEMEALLKAMEKDIIIPDTHYYDDSVIIADVMESAFAPYVDRIMKEFDGIYVKSHPRNVEVKNPELEIEISGFGEDEAALRKKIEDAIARAGEYAVKLGGSVKR | not soluble
MKNDVISPEFDENGRPLRRIRSFVRRQGRLTKGQEHALENYWPVMGVEFSEDMLDFPALFGREAPVTLEIGFGMGASLVAMAKDRPEQDFLGIEVHSPGVGACLASAHEEGLSNLRVMCHDAVEVLHKMIPDNSLRMVQLFFPDPWHKARHNKRRIVQVPFAELVKSKLQLGGVFHMATDWEPYAEHMLEVMSSIDGYKNLSESNDYVPRPASRPVTKFEQRGHRLGHGVWDLMFERVK | soluble
MKNELICYKQMPVWTKDNLPQMFQEKHNTKVGTWGKLTVLKGKLKFYELTENGDVIAEHIFTPESHIPFVEPQAWHRVEALSDDLECTLGFYCKKEDYFSKKYNTTAIHGDVVDAAKIISPCKVLDLGCGQGRNSLYLSLLGYDVTSWDHNENSIAFLNETKEKENLNISTALYDINAANIQENYDFIVSTVVFMFLNRERVPSIIKNMKEHTNVGGYNLIVAAMSTDDVPCPLPFSFTFAENELKEYYKDWEFLEYNENMGELHKTDENGNRIKMKFATMLARKKLEHHHHHH | not soluble
MKNERIEKLQESWELDTRWKGITRPYSAEDVIRLRGSIDIEHTLARRGAEKLWASLHTEDYINALGALTGNQAMQQVKAGLKAIYLSGWQVAADANLSGHMYPDQSLYPANSVPAVVKRINQTLQRADQIQHMEGSGDTDYFVPIVADAEAGFGGQLNVFELMKGMIEAGASGVHFEDQLSSEKKCGHLGGKVLLPTQTAVRNLISARLAADVMGVPTIIVARTDADAADLITSDIDPVDKAFITGERTPEGFYRTKAGLDQAIARGLAYAPYADLVWCETSEPNLEDAKRFADAIHKEHPGKLLAYNCSPSFNWKQKLDEKTIASFQKEIASYGYKFQFVTLAGFHSLNYGMFELARGYKERGMAAYSELQQAEFAAEKHGYSATRHQREVGTGYFDEVAQVITGGTSSTTALKGSTEEAQFTK | not soluble
MKNIKDEWVQIALDLTSGLSSKDRFERLLSTIRNALKCDASALLLFKNQYFSPLATNGLDGDVIGRRFAISQHPRLEAIARAGDIVRFPSDSDLPDPYDGLIANEERQLQVHSCIGLPLLVNERLIGAVTIDAFDPTQFDSFTNKELRIISALAATSLHTALLMERLENQS | not soluble
MKNIYVETYGCALNRADTYVMMTLLKSEGYNFVENPENADIIILNTCAVRLETEERMKQRIKELNTLSKKLVVAGCMSSAEPATVLSIAPNASLIGPQSVERIVDIVKSEERKIVIEGDRALITPRTFDGKIAIIPVADGCAGNCSFCITKLARRKLRSYPLREIVNAARDAIQSGAREIELTGQDTAAYGLDLGGSISLVDVVNKVADIDGDFMIRIGMMTPEQAMRIMDDLIEAIRNPKVYKFIHLPVQSGDDRVLKLMNRKYTVDEYKELISEIRHKIPFVNITTDIIVGHPGEDEEAFNNTLLLMKELRFERIHLAMYSIRPNTRSASMPQVPDSIKKKRIQIANKLYEDLALSIHLDYVGSTSRVITTELGRKGSVIGRLMNYIPVVIRSENVELGKWYDVKITEASFYDLRGILALEHHHHHH | soluble
MKNREIYAEMRCIPPVVLRADGRNFKNTLSGLGFEKPYDTTFARAMADTAELFIKKSGLSPYFAYTFSDEISFLFTDLPFDGRVEKIDSVVASFLGSALTIKLRLEAPIAFDSRLVALQKEEVSEYFHWRQLEAWRNFVASWGYYSLRNEGMGKDEAGKFLKGKKEWEIHEMLFERGINLAALPAWQRRGIIISKEECEISGFNPVYGKEVKSMRRRITQNWEIPKFKSEEGITFLEKLINRNMAGDPLEHHHHHH | not soluble
MKNTFVYQAEKPVIKLLQITDPHLFKDESAELLGVNTQASFAQVLKEIQQENNEFDVILATGDLVQDSSDEGYIRFVEMMKPFNKPVFWIPGNHDFQPKMAEFLNQPPMNAAKHLLLGEHWQALLLDSQVYGVPHGQLSQHQLDLLKETLGKNPERYTLVVLHHHLLPTNSAWLDQHNLRNSHELAEVLAPFTNVKAILYGHIHQEVNSEWNGYQVMATPATCIQFKPDCQYFSLDTLQPGWREIELHSDGSIRTEVKRIQQAEFFPNMQEEGY | not soluble
MKNWIVGMVALVTMVPVMAATPWQKITHPVAGSPQSIGGFANGCVIGAQPLPLESADYQVMRSDQRRYFGHPDLLNFIHRLSAQTHQQQLGTVLIGDMAMPAGGRFSSGHASHQSGLDVDIWLQLPKQRWSQQQLLKPQPIDLVAVDGKRVIPALWQPQIESLIKLAAKDNDVTRIFVNPAIKKQLCLDAGADRQWLHKVRPWFAHRAHMHVRLRCPANSLECVDQDTPPPGDGCGAELESWFQPPPPSAKPGKTLPPPLPPSCQALLDNHFATE | not soluble
MKPATFKEAVVLYEGMIVNQIKKLGIRKDYEEYYQCGLIGLWHAYERFDEKKGYFPAYAVVTVRGYILERLKKEFAVQERCVCVGEYEDIFHFEDVEIRVKDFMSVLDEKEKYIIFERFFVGKTMGEIALETEMTYYQVRWMYRQALEKMRDSVKG | not soluble
MKPDAHQVKQFLLNLQDTICQQLTAVDGAEFVEDSWQREAGGGGRSRVLRNGGVFEQAGVNFSHVHGEAMPASATAHRPELAGRSFEAMGVSLVVHPHNPYVPTSHANVRFFIAEKPGAEPVWWFGGGFDLTPFYGFEEDAIHWHRTARDLCQPFGEDVYPRYKKWCDDYFYLKHRNEQRGIGGLFFDDLNTPDFDHCFAFMQAVGKGYTDAYLPIVERRKAMAYGERERNFQLYRRGRYVEFNLVWDRGTLFGLQTGGRTESILMSMPPLVRWEYDYQPKDGSPEAALSEFIKVRDWGLEHHHHHH | not soluble
